Assay results: patent publication US20230075633A1 (SHANDONG BOAN BIOTECHNOLOGY, published 2023)

What was measured:
[1] = target: T1, human CEA (human, UniProt P06731 35-702); assay: cell-based or functional assay
T1 sequence (looked up): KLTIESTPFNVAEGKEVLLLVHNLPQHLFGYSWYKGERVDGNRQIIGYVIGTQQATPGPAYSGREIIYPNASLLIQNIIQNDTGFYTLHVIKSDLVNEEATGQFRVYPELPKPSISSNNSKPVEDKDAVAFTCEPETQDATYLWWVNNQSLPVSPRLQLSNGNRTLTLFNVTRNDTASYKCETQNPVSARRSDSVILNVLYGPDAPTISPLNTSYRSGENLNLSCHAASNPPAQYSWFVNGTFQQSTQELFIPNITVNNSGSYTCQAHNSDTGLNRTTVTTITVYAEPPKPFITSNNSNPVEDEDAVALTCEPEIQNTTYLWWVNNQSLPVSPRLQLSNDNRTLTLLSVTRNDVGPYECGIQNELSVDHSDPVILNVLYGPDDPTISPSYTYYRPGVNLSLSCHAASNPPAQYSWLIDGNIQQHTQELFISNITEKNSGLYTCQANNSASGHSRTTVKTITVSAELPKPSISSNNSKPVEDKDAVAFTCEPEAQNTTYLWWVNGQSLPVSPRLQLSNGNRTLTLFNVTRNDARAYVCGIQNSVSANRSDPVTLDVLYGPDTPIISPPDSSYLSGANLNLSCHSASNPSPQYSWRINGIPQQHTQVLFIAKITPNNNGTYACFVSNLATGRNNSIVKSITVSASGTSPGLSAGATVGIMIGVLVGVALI

[2] = target: T1, human CEA; assay: cell-based or functional assay; remark: listed apart in the source
[3] = target: T1, human CEA; assay: cell-based or functional assay; remark: listed apart in the source
[4] = target: T1, human CEA; assay: cell-based or functional assay; remark: listed apart in the source
[5] = target: T2, human CD3 (human, UniProt P07766 23-207); assay: cell-based or functional assay
[6] = target: T2, human CD3; assay: flow cytometry on Jurkat cells
Description: (§1) Mean fluorescence intensity (MFI) was determined by Flow cytometry. […] Mean fluorescence intensity (MFI) was determined by Flow cytometry.

[7] = target: T3, Cynomolgus monkey CD3 protein (cynomolgus monkey, UniProt Q95LI5 22-117); assay: ELISA on cynomolgus monkey CD3 protein, curve fit
T3 sequence (looked up): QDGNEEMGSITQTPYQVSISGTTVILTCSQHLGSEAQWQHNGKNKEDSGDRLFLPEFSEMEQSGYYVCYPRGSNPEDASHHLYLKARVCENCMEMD

[8] = target: T2, human CD3; assay: flow cytometry on human PBMC (ND 12)
Description: as §1

T2 sequence (P07766 23-207): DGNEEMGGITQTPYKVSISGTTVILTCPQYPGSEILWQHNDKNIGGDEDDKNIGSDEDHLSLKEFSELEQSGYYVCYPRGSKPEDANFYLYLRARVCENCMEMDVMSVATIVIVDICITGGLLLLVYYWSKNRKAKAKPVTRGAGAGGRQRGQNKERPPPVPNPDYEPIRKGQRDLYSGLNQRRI

B1: CEA/CD3OPT1a3b2b1 BsAb (bispecific antibody, V domains shown)
VH 1: EVQLVESGGGLVQPGGSLRLSCAASGFNIKDTYMHWVRQAPGKGLEWVARIDPAQGNTKYADSVKGRFTISADTSKNTAYLQMNSLRAEDTAVYYCAPFGYYVSDYAMAYWGQGTLVTVSS
VL 1: DIQLTQSPSSLSASVGDRVTITCRAGESVDIFGVGFLHWYQQKPGKAPKLLIYRASNLESGVPSRFSGSGSRTDFTLTISSLQPEDFATYYCQQTNEDPYTFGQGTKVEIK
VH 2: EVQLVESGGGLVKPGGSLKLSCAASGFTFSTYAMNWVRQAPGKGLEWVARIRSKYNNYATTYADSVKDRFTISRDDSKNTAYLQMNNLRTEDTAVYYCVRHGNWGNSYISYWAYWGQGTTVTVSS
VL 2: not shown
notes: also called CEA/CD3-1a3b2b1-BsAb; Lead CEA/CD3; copies: 2 + 2 + 2 + 2
cytolysis of KATO-III cells by PBMC: EC50 [1]: 0.132 nM | cytolysis of LS174T cells by PBMC: EC50 [1]: 0.0003 nM | cytolysis of MKN-45 cells by PBMC: EC50 [1]: 0.0003 nM | killing of LS-174T cells by PBMC at E:T ratio of 5:1 [2]: 20% | lysis of KATO III cells by PBMC: Bottom [3]: 58.1 | lysis of KATO III cells by PBMC: LogEC50 [3]: -0.194 | lysis of KATO III cells by PBMC: Span [3]: 36.2 | lysis of KATO III cells by PBMC: Top [3]: 94.3 | lysis of LS-174T cells by PBMC: Bottom [4]: 12.6 | lysis of LS-174T cells by PBMC: LogEC50 [4]: -2.18 | lysis of LS-174T cells by PBMC: Span [4]: 91.8 | lysis of LS-174T cells by PBMC: Top [4]: 104 | NFAT-luciferase in Jurkat cells: Bottom [5]: 2830 | NFAT-luciferase in Jurkat cells: LogEC50 [5]: -0.154 | NFAT-luciferase in Jurkat cells: Span [5]: 17200 | NFAT-luciferase in Jurkat cells: Top [5]: 20000 | EC50 [6]: 113 nM | Bottom (best-fit) [7]: 0.00678 | LogEC50 [7]: -1.75 | Span (best-fit) [7]: 4.09 | Top (best-fit) [7]: 4.1 | EC50 [8]: 81 nM
